Experimental data reported in patent publication US11135246B2, “Peptides and combination of peptides for use in immunotherapy against leukemias and other cancers” (Immatics Biotechnologies GmbH, priority 2017, dated 2021).

Target: HLA-B*44:02 (Homo sapiens, UniProt P01889, A223V/A65T/A93T/A95T/D201E/D98Y/E176V/E187L/E204Q/E69K/G107R/H137Y/K202T/L105A/L119I/N104T/N87E/Q56L/Q94N/R106L/R155S/R180D/S101N/S121R/S35A/S48T/T118I/V36M/W191S/Y140D/Y91S)
Experiment: MHC binding assay, UV-ligand exchange with β2m ELISA, HLA-B*44:02
Conditions: binding to HLA-B*44:02, UV-ligand exchange
Text: Candidate peptides for T cell based therapies according to the present invention were further tested for their MHC binding capacity (affinity). The individual peptide-MHC complexes were produced by UV-ligand exchange, where a UV-sensitive peptide is cleaved upon UV-irradiation, and exchanged with the peptide of interest as analyzed. Only peptide candidates that can effectively bind and stabilize the peptide-receptive MHC molecules prevent dissociation of the MHC complexes. To determine the yield of the exchange reaction, an ELISA was performed based on the detection of the light chain (β2m) of stabilized MHC complexes. The assay was performed as generally described in Rodenko et al. (Rodenko et al., 2006).
96 well MAXISorp plates (NUNC) were coated over night with 2 ug/ml streptavidin in PBS at room temperature, washed 4× and blocked for 1 h at 37° C. in 2% BSA containing blocking buffer. Refolded HLA-A*02:01/MLA-001 monomers served as standards, covering the range of 15-500 ng/ml. Peptide-MHC monomers of the UV-exchange reaction were diluted 100-fold in blocking buffer. Samples were incubated for 1 h at 37° C., washed four times, incubated with 2 ug/ml HRP conjugated anti-β2m for 1 h at 37° C., washed again and detected with TMB solution that is stopped with […]. Absorption was measured at 450 nm. Candidate peptides that show a high exchange yield (preferably higher than 50%, most preferred higher than 75%) are generally preferred for a generation and production of antibodies or fragments thereof, and/or T cell receptors or fragments thereof, as they show sufficient avidity to the MHC molecules and prevent dissociation of the MHC complexes.

Substance	Peptide exchange (MHC class I binding score, peptide exchange yield)
122 (KELPGVKKY; listed as Homo sapiens) [compound 122]	“++” (>20% = ++)
123 (EENPGKFLF; listed as Homo sapiens) [compound 123]	“+++” (>50 = +++)
124 (SESLPKEAF; listed as Homo sapiens) [compound 124]	“++” (>20% = ++)
125 (SESTFDRTF; listed as Homo sapiens) [compound 125]	“+++” (>50 = +++)
126 (EENKPGIVY; listed as Homo sapiens) [compound 126]	“++” (>20% = ++)
127 (TEYPVFVY; listed as Homo sapiens) [compound 127]	“+” (>10% = +)
128 (GENDRLNHTY; listed as Homo sapiens) [compound 128]	“++” (>20% = ++)
129 (GEGAYGKVF; listed as Homo sapiens) [compound 129]	“++++” (>75% = ++++)
130 (EEEHGKGREY; listed as Homo sapiens) [compound 130]	“++” (>20% = ++)
131 (EEFETIERF; listed as Homo sapiens) [compound 131]	“++” (>20% = ++)
132 (GELPAVRDL; listed as Homo sapiens) [compound 132]	“++” (>20% = ++)
133 (AEHNFVAKA; listed as Homo sapiens) [compound 133]	“+++” (>50 = +++)
134 (SEYADTHYF; listed as Homo sapiens) [compound 134]	“+++” (>50 = +++)
135 (NEIKVYITF; listed as Homo sapiens) [compound 135]	“+++” (>50 = +++)
136 (AEYKGRVTL; listed as Homo sapiens) [compound 136]	“++++” (>75% = ++++)
137 (GELGGSVTI; listed as Homo sapiens) [compound 137]	“+++” (>50 = +++)
138 (SQAPAARAF; listed as Homo sapiens) [compound 138]	“++” (>20% = ++)
139 (RENQVLGSGW; listed as Homo sapiens) [compound 139]	“+++” (>50 = +++)
140 (EYDLKWEF; listed as Homo sapiens) [compound 140]	“++” (>20% = ++)
141 (REYEYDLKWEF; listed as Homo sapiens) [compound 141]	“+++” (>50 = +++)
142 (TEIFKEHNF; listed as Homo sapiens) [compound 142]	“++” (>20% = ++)
143 (YEYDLKWEF; listed as Homo sapiens) [compound 143]	“+++” (>50 = +++)
144 (TEGKRYFTW; listed as Homo sapiens) [compound 144]	“+++” (>50 = +++)
145 (AEPLVGQRW; listed as Homo sapiens) [compound 145]	“+++” (>50 = +++)
146 (SESKTVVTY; listed as Homo sapiens) [compound 146]	“+++” (>50 = +++)
147 (KEVPRSYEL; listed as Homo sapiens) [compound 147]	“++” (>20% = ++)
148 (REYNEYENI; listed as Homo sapiens) [compound 148]	“++” (>20% = ++)
149 (SEKETVAYF; listed as Homo sapiens) [compound 149]	“+++” (>50 = +++)

The next lines start with the values.

Peptide exchange (MHC class I binding score, peptide exchange yield)	Substance
“++” (>20% = ++)	150 (EEVTDRSQL; listed as Homo sapiens) [compound 150]
“++” (>20% = ++)	151 (EVDASIFKAW; listed as Homo sapiens) [compound 151]
“++” (>20% = ++)	152 (AELLAKELY; listed as Homo sapiens) [compound 152]
“++” (>20% = ++)	153 (KEFEQVPGHL; listed as Homo sapiens) [compound 153]
“+++” (>50 = +++)	154 (AEPGPVITW; listed as Homo sapiens) [compound 154]
“+++” (>50 = +++)	155 (NEFPVIVRL; listed as Homo sapiens) [compound 155]
“+++” (>50 = +++)	156 (FEVESLFQKY; listed as Homo sapiens) [compound 156]
“+++” (>50 = +++)	157 (VEIAEAIQL; listed as Homo sapiens) [compound 157]
“++” (>20% = ++)	158 (GENEDNRIGL; listed as Homo sapiens) [compound 158]
“+++” (>50 = +++)	159 (GELLGRQSF; listed as Homo sapiens) [compound 159]
“++” (>20% = ++)	160 (EEETILHFF; listed as Homo sapiens) [compound 160]
“+++” (>50 = +++)	161 (EEGDTLLHLF; listed as Homo sapiens) [compound 161]
“++” (>20% = ++)	162 (DEAQARAAF; listed as Homo sapiens) [compound 162]
“++++” (>75% = ++++)	163 (EEWMGLLEY; listed as Homo sapiens) [compound 163]
“++” (>20% = ++)	164 (SEYSHLTRV; listed as Homo sapiens) [compound 164]
“++” (>20% = ++)	165 (VELDLQRSV; listed as Homo sapiens) [compound 165]
“+” (>10% = +)	166 (NEVLASKY; listed as Homo sapiens) [compound 166]

Peptide exchange (MHC class I binding score, peptide exchange yield)	Substance
“+++” (>50 = +++)	167 (KEIGAAVQAL; listed as Homo sapiens) [compound 167]
“+++” (>50 = +++)	168 (QEIQSLLTNW; listed as Homo sapiens) [compound 168]
“++” (>20% = ++)	169 (EENGEVKEL; listed as Homo sapiens) [compound 169]
“+++” (>50 = +++)	170 (SENEQRRMF; listed as Homo sapiens) [compound 170]
“++” (>20% = ++)	171 (SEDLAVHLY; listed as Homo sapiens) [compound 171]
“+++” (>50 = +++)	172 (VEDGLFHEF; listed as Homo sapiens) [compound 172]
“++” (>20% = ++)	173 (KEYDFGTQL; listed as Homo sapiens) [compound 173]
“+” (>10% = +)	174 (TDKSFPNAY; listed as Homo sapiens) [compound 174]
“++” (>20% = ++)	175 (HEIDGKALFL; listed as Homo sapiens) [compound 175]
“++” (>20% = ++)	176 (AENAVSNLSF; listed as Homo sapiens) [compound 176]
“+++” (>50 = +++)	177 (QENMQIQSF; listed as Homo sapiens) [compound 177]
“+++” (>50 = +++)	178 (REYEHYWTEL; listed as Homo sapiens) [compound 178]
“++” (>20% = ++)	179 (AEIKQTEEKY; listed as Homo sapiens) [compound 179]
“++” (>20% = ++)	180 (EEPAFNVSY; listed as Homo sapiens) [compound 180]
“++” (>20% = ++)	181 (GEIKEPLEI; listed as Homo sapiens) [compound 181]
“++” (>20% = ++)	182 (AQNLSIIQY; listed as Homo sapiens) [compound 182]
